# Test results: article PMC3519385 (Structure (London, England : 1993), 2012)
# Values joined by “and” are separate entries in the source; they are usually repeats but may differ in a detail not shown here. Equal entries are not always repeated.
# T1: Gemin2 (UniProt O14893 1-280)
# T1 sequence (looked up): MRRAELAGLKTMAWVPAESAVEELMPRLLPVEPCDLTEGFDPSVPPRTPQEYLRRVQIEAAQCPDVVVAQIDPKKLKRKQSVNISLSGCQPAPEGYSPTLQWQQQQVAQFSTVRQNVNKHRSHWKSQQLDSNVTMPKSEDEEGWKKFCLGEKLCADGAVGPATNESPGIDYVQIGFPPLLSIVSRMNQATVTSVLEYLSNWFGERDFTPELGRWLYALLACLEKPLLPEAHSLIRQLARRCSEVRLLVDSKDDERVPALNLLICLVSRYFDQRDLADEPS
# Biological target: T1, Gemin2
# Test: co-purification
row,stoichiometry N,Binder
1,1,"SMN Δexon5 (SMNΔ5) (natural protein, human, UniProt Q16637-2 1-262, looked up) MAMSSGGSGGGVPEQEDSVLFRRGTGQSDDSDIWDDTALIKAYDKAVASFKHALKNGDICETSGKPKTTPKRKPAKKNKSQKKNTAASLQQWKVGDKCSAIWSEDGCIYPATIASIDFKRETCVVVYTGYGNREEQNLSDLLSPICEVANNIEQNAQENENESQVSTDESENSRSPGNKSDNIKPKSAPWNSFLPPPPPMPGPRLGPGKIIPPPPPICPDSLDDADALGSMLISWYMSGYHTGYYMGFRQNQKEGRCSHSLN"

# Biological target: the molecule itself
# Test: not given
row,Binder,stoichiometry N
1,"MBP-SMN^229–294 (domain or fragment, human, UniProt Q16637 229-294, looked up) LSCWLPPFPSGPPIIPPPPPICPDSLDDADALGSMLISWYMSGYHTGYYMGFRQNQKEGRCSHSLN",4 and 8
2,"MLISWYMSGYHTGYYMGFRQNQKEGRCSHSLN (domain or fragment, human, UniProt Q16637 263-294, looked up) [MBP-YG^263–294]",2

# Biological target: the molecule itself
# Test: SEC-MALS
row,Binder,stoichiometry N
1,"DSLDDADALASMLISWYMSGYHTGYYMGFRQNQKEGRCSHSLN (domain or fragment, human, UniProt Q16637 252-294, looked up) [MBP-YG^252–294 G261A]",≥ 4
2,"DSLDDADALGSMLISWYMSGYHTGYYMGFRQAQKEGRCSHSLN (domain or fragment, human, UniProt Q16637 252-294, looked up) [MBP-YG^252–294 N283A]",≥ 4
3,"DSLDDADALGSMLISWYMSGYHTGYYMAFRQNQKEGRCSHSLN (domain or fragment, human, UniProt Q16637 252-294, looked up) [MBP-YG^252–294 G279A]",≥ 4
4,"DSLDDADALGSMLISWYMAGYHTGYYMGFRQNQKEGRCSHSLN (domain or fragment, human, UniProt Q16637 252-294, looked up) [MBP-YG^252–294 S270A]",≥ 4

# Biological target: the molecule itself
# Test: SEC-MALS
# Remark: another data set of the same source
row,Binder,stoichiometry N
1,"DSLDDADALGSMLISWYMSGYHTGYYMCFRQNQKEGRCSHSLN (domain or fragment, human, UniProt Q16637 252-294, looked up) [MBP-YG^252–294 G279C]",≥ 4
2,"DSLDDADALGSMLISWYMSGYRTGYYMGFRQNQKEGRCSHSLN (domain or fragment, human, UniProt Q16637 252-294, looked up) [MBP-YG^252–294 H273R]",4
3,"DSLDDADALGSMLISWYMSGYHTGYYMGFRQNQKEGRCSHSLN (domain or fragment, human, UniProt Q16637 252-294, looked up) [MBP-YG^252–294]",4
4,"DSLDDADALGSMLISWYMSGYHIGYYMGFRQNQKEGRCSHSLN (domain or fragment, human, UniProt Q16637 252-294, looked up) [MBP-YG^252–294 T274I]",4
5,"DSLDDADALGGMLISWYMSGYHTGYYMGFRQNQKEGRCSHSLN (domain or fragment, human, UniProt Q16637 252-294, looked up) [MBP-YG^252–294 S262G]",4
6,"DSLDDADALGIMLISWYMSGYHTGYYMGFRQNQKEGRCSHSLN (domain or fragment, human, UniProt Q16637 252-294, looked up) [MBP-YG^252–294 S262I]",≥ 4
